Positions count from the first letter of the chain named.
T1: CLDN6 endogenously expressed by human cancer cell lines (ARK2, OVCA429) (human, UniProt P56747 1-220)
T1 construct: Untagged endogenous protein; also called Endogenous CLDN6+
T1 sequence: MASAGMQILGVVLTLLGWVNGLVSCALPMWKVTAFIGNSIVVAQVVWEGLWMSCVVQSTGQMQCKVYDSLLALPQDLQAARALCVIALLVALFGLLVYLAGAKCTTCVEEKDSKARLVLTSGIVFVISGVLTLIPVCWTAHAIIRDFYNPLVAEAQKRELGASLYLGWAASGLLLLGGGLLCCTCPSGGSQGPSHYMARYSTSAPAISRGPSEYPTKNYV

T2: human CLDN6 fused to GFP, expressed on engineered HEK293T cells (HEK293T-CLDN6-mGFP) (human, UniProt P56747 1-220)
T2 construct: It calls residues 1-21 a signal peptide; also called Claudin-6; HEK293T-CLDN6-mGFP Artificial CLDN6+; not shown: mGFP tag
T2 sequence: T1 sequence

T3: mouse CLDN6 fused to GFP, expressed on engineered HEK293T cells (mouse, UniProt Q9Z262 1-219)
T3 construct: whole, on cells; also called HEK293T-CLDN6-mGFP Artificial CLDN6+ (mouse); murine CLDN6; not shown: GFP tag
T3 sequence (looked up): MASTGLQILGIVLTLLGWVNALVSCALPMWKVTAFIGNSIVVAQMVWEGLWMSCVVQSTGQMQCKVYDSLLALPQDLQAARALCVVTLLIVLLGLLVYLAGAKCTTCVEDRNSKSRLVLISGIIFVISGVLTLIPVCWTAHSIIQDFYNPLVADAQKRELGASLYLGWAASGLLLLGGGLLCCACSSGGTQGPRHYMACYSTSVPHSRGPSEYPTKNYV

B1: AB4-chim (antibody, V domains shown)
VH: QVQLQQSGAELARPGASVKMSCKASGYTFTSYTMHWIKQRPGQGQEWIGYINPSSTYTHYIKKFKDKATLTADKSSSTAYMQLRSLTSEDSAVYYCSRGELGGFAYWGQGTLVTVSA
VL: DVVMTQTPLSLPVSLGDQASISCRSSQSLVHSDGNTYLNWYLQKPGQSPKLLIYKVSNRFSGVPDRFSGSGSGTDFTLKIRRVEAEDLGVYFCSQSTHVPYTFGGGTKLEIK
notes: 'chim' is the pre-humanized form (parental variable regions); also called pre-humanized (chimeric) form of AB4
B2: AB14 (antibody, V domains shown)
VH: QVQLQQSGPELVRPGVSVKISCKGSGYTFTDYAMHWVKQSHAKSLEWIGVISTYSGNTNYNQKFQDKATMTVDKSSSTAYMALARLTSDDSAIYYCARRGDYSLYAMDYWGQGTSVTVSS
VL: DIVLTQSPASLAVSLGQRATISCKASQSVDYDGDNYVNWYQQKVGQPPKLLISAASNLESGIPARFSGSGSGTDFTLNIHPVEEEDAATYYCQQSNEDPFTFGSGTKLEIK
notes: Labelled with Alexa Fluor 647 NHS ester for FACS
B3: AB12 (antibody, V domains shown)
VH: EVKLMESGGDLVKPGGSLKLSCAASGFTFSSYAMSWVRQTPEKRLEWVASIRSGGTTYYPDSVKGRFTISRDNARNILYLRMSSLRSEDTAIYYCAKVGGNPYPMDYWGQGTSVTVSS
VL: DIQMIQSPSSMFASLGDRVSLSCRASQDIGGNLDWYQQKPGGTIKLLIYSTSNLNSGVPSRFSGSGSGSDYSLTITSLESEDFADYYCLQRNAYPLTFGAGTKLELK
notes: as for B2
B4: AB10 (antibody, V domains shown)
VH: QIQLVQSGPALKKPGETVKISCKASGYTFTDYSMHWIKQAPGKGLKWMGWISTETGEPTYADGFKGRFDFSLETSADTAYLSINNLTNEDTATYFCTRGLWSSFAYWGQGTLVTVSA
VL: B1 VL with S25A, D33N, N39H, Y41F, G73R, R81S, S96I
notes: as for B2
B5: AB11 (antibody, V domains shown)
VH: DVQLVESGGGLVQPRGSRKLSCAASGFTFSSFGMHWVRQAPEKGLEWVAYISSDSRTIYYADTVKGRFTISRDNPTNTLFLQMTSLRSEDTAMYYCARDYGRTYEAYWGQGTLVTVSA
VL: DIVLTQSPASLAVSLGQRATISCRASKSVSTSGYSYIHWYQQKPGQPPKLLIYLASNLESGVPARFSGSGSGTDFTLNIHPVEEEDAATYYCQHSRELPLTFGAGTKLELK
notes: as for B2
B6: AB9 (antibody, V domains shown)
VH: EVQLQQSGPELVKPGASVKMSCKASGYRFTDYNMHWVKQSHGKSLEWIGYINPNNGGTNYNQNFKGKATLTVNKSSSTAYMELRSLTSEDSAAYYCARDYLYFFDCWGQGTTLTVSS
VL: DIQMTQSPASQSASLGESVTITCLASQTIGTWLAWYQQKPGKSPQLLIYAAASLADGVPSRFSGSGSGTRFSFKISSLQAEDFVSYYCQQLYSIPRTFGGGTKLEIK
notes: as for B2
B7: AB18 (antibody, V domains shown)
VH: QVQLKQSGPELEKPGASVKISCKASGYSFTGYNMNWVKQSNGKSLEWIGNIDPYYGGSTYNQKFTGKATLTVDKSSSTAYMQLKSLTSEDSAVYYCARERSGYVFSAMDYWGQGTSVTVSS
VL: NIMMTQSPSSLAVSAGEKVTMSCKSSQSVLFSSNQKNYLAWYQQKPGQSPRLLIYWASTRESGVPDRFTGSGSGTDFTLTISNVQAEDLAVYYCHQYLSSRTFGAGTKLELK
notes: as for B2
B8: AB13 (antibody, V domains shown)
VH: QVQLQQSGAELVRPGTSVKVSCKASGYAFSNYLIEWVKQRPGQGLEWIGVINPGSGGTNYNEKFKGKATMTADKSSSTAYMHLSNLTSEDSVVYFCARSYFGRSYPYTMDYWGQGTSVTVSS
VL: EIVLTQSPTTMAASPGEKITITCSASSSISSNYLHWYQQKPGFSPKLLIYRTSNLASGVPARFSGSGSGTSYSLTIGTMEAEDVATYYCQQGSSIPLTFGAGTKLELK
notes: as for B2

Target: T1, CLDN6 endogenously expressed by human …
Experiment: FACS, 1.5 µg Ab, ARK2 cells
Experimental: (§1) FACS assays were also carried out to determine relative antigen binding strengths of the humanized antibodies (at either 1.5 μg or 0.3 μg) for binding to CLDN6 as expressed by the indicated cancer cell lines. 2nd Ab only was used as a negative control.

FACS fluorescence | Binder
38400 | B1

Target: T2, human CLDN6 fused to GFP, expressed on …
Experiment: FACS, 0.3 µg Ab, 293T clone with human CLDN6
How it was run: (§2)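 Engineered 293T clones expressing human CLDN6 were detached with EDTA and incubated with Alexa Fluor 647 NHS ester-labelled humanized antibody, at 0.3 µg or 1.5 µg, for 30 min on ice in the dark. After washing, the cells were read by flow cytometry on a BD Accuri C6 in channel FL4H. Fluorescence in this direct-binding assay reflects relative antigen binding strength.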

FACS fluorescence | Binder
176000 | B1

Target: T1, CLDN6 endogenously expressed by human …
Experiment: FACS, AF647-labelled mAb, ARK2 cells
Experimental: (§3) Antibodies were purified and cell surface binding of the antibodies to CLDN6 and the antibody IC₅₀ were determined by FACS in which CLDN6 antibodies were directly conjugated with Alexa Fluor® 647 NHS Ester (Succinimidyl Ester), Cat #A20106 (ThermoFisher Scientific) following the manufacturer's protocol. CLDN6 antibodies were tested from 0.32 nM to 1000 nM (serial dilution 1:5, 6 points) in a 50 μl volume with 150,000 cells system.
(§4) CLDN6-expressing cells were used in FACS assays to determine the CLDN6 antibody's ability to bind to CLDN6 on the surface of cells and to cross-react with other CLDN family members. HEK293 T cells engineered to express human CLDN6 fused to GFP, mouse CLDN6 fused to GFP, CLDN9-GFP, CLDN4-GFP, or CLDN3-GFP, or GFP alone (without CLDN6) were used as artificial models of CLDN6 expression. ARK2, OVCA429, LS513 and MCF7 cells were used as endogenous models of CLDN6 expression, as well as models for CLDN3/4 expression.
(§5) For each type of cell tested and for each mAb, cells were detached from the surface of the culture flasks by EDTA (instead of trypsin) in order to protect the cell surface proteins. The detached cells were then incubated with Alexa Fluor®-labeled CLDN6 mAbs for 30 min in the dark on ice at a pre-determined concentration. The CLDN6 mAbs were directly labeled with Alexa Fluor® 647 NHS Ester (Succinimidyl Ester). After washing, the cells were read by a BD Accuri™ Flow Cytometer C6 to detect antibody-antigen protein binding in channel FL4H. Each antibody was tested at varied concentrations to establish a dose-fluorescence curve. The EC50/IC50 of the antibodies (the concentration of the antibody at which half the max value were calculated based on the values of FL4H (gated in viable singlet cells) using the Very Simple IC50 Tool kit available online which allows biological dose-response data to be plotted and fitted to curve types to give the EC50/IC50. The max value was the lowest concentration of the antibody at which fluorescence maxes out. The antibodies were also screened for their ability to cross-react with other CLDN proteins such as CLDN9, CLDN3, and CLDN4. These values were used to determine each antibody's relative affinity among the set of antibodies tested. Cross-reactivity data were obtained using a similar methodology, but with cells having a different expression profile for CLDN6, CLDN3, CLDN4 and CLDN9.

EC50 [µM] | Binder
1.3 | B2
1.3 | B3
2.14 | B4
0.363 | B5
1.14 | B6
1.35 | B7
1.15 | B8

Target: T2, human CLDN6 fused to GFP, expressed on …
Experiment: FACS, 1.5 µg Ab, 293T clone with human CLDN6
How it was run: as §2

FACS fluorescence | Binder
327000 | B1

Target: T1, CLDN6 endogenously expressed by human …
Experiment: FACS, 1.5 µg Ab, OVCA429 cells

FACS fluorescence | Binder
64800 | B1

Target: T2, human CLDN6 fused to GFP, expressed on …
Experiment: FACS, AF647-labelled mAb, HEK293T-CLDN6-mGFP cells
Experimental: as §3, §4, §5

EC50 [µM] | Binder
≥ 5 | B2
≥ 5 | B3
2.76 | B4
1.7 | B5
2.67 | B6
≥ 5 | B7
≥ 5 | B8

Target: T1, CLDN6 endogenously expressed by human …
Experiment: FACS, AF647-labelled mAb, OVCA429 cells
Experimental: as §3, §4, §5

EC50 [µM] | Binder
1.66 | B2
2.29 | B3
2.47 | B4
0.835 | B5
1.17 | B6
2.44 | B7
2.29 | B8

Target: T1, CLDN6 endogenously expressed by human …
Experiment: FACS, 0.3 µg Ab, ARK2 cells
Experimental: as §1

FACS fluorescence | Binder
19100 | B1

Target: T3, mouse CLDN6 fused to GFP, expressed on …
Experiment: FACS, 293T clone with mouse CLDN6, dose not given
Experimental: Humanized antibodies described in Table 8 were constructed and expressed as essentially described in Example 5. FACS assays were carried out as essentially described in Example 5 to determine relative antigen binding strengths of the humanized antibodies. Two doses (1.5 μg or 0.3 μg) of the humanized antibodies were tested for binding to either human CLDN6 or murine CLDN6 which proteins were expressed by engineered 293T clones.

FACS fluorescence | Binder
3640 | B1
